Assay results taken from patent publication US20110065633A1, “ESTER-BASED PEPTIDE PRODRUGS” (INDIANA UNIVERSITY RESEARCH AND TECHNOLOGY CORPORATION, priority 2008, published 2011).
Read-outs that look alike come from different tables or passages of the source. Bridges are numbered along the chain shown (N, C = ends). Where no end group is shown, it is not given here. [ ]: non-standard residue; d: D form. PhLac = O=C(O)[C@@H](O)Cc1ccccc1

Key:
Assay in all cases: cell-based or functional assay
[1] = target: T1, GLP-1 receptor (Homo sapiens, UniProt P43220)
T1 sequence (P43220 24-463 limits assumed): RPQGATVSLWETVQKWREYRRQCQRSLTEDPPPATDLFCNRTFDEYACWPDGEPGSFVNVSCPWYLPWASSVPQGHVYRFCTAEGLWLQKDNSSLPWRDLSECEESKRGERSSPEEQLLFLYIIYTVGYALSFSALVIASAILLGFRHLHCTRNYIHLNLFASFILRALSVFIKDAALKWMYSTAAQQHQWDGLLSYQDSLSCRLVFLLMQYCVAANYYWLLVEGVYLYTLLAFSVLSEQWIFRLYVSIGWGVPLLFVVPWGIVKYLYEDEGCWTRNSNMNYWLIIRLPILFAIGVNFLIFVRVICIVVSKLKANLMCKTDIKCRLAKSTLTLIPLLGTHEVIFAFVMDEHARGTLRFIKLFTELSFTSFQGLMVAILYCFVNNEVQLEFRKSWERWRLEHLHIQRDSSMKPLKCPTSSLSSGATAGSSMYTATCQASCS

[2] = target: glucagon receptor (UniProt P47871)
Sequence of glucagon receptor (UniProt P47871) (P47871 26-477 limits assumed): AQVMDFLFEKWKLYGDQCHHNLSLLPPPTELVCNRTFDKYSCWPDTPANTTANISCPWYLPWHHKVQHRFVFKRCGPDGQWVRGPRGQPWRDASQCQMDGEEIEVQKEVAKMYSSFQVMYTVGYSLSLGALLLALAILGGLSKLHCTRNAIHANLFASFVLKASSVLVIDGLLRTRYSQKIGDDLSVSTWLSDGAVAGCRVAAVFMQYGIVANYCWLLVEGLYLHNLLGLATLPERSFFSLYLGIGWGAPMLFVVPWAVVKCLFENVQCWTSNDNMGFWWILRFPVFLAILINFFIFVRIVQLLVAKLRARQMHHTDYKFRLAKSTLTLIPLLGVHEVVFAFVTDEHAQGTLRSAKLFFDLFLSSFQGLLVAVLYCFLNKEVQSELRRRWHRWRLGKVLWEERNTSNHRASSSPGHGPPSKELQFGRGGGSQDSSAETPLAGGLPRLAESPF

[3] = target: T1, GLP-1 receptor; remark: listed apart in the source
[4] = target: glucagon receptor (UniProt P47871); remark: listed apart in the source
[5] = target: glucagon receptor (UniProt P47871 26-477)
Sequence of glucagon receptor (UniProt P47871 26-477) (P47871 26-477 limits assumed): as above

[6] = target: T2, GLP-1 receptor (UniProt P43220 24-463, limits assumed)
[7] = target: T2, GLP-1 receptor; remark: listed apart in the source

Q: Which GLP-1 EC50 [1] does the source give for “Glucagon (6-CEX) analog D9, K12E16(Lactam) (peptide)” here?
A: The GLP-1 EC50 was 18 nM.

Q: What about the Glucagon IC50 [2] of the same molecule?
A: The Glucagon IC50 was 828 nM.

Q: What about the GLP-1 EC50 [3] of the same molecule?
A: The GLP-1 EC50 was 119 nM.

Q: What about the Glu IC50 [4] of the same molecule?
A: Its Glu IC50 is 828 nM.

Q: For “Glucagon (6-CEX) analog E9, K12E16(lactam) (peptide)”, which Glucagon IC50 [2] is on record?
A: The Glucagon IC50 was 2010 nM.

Q: And the GLP-1 EC50 [3]?
A: Its GLP-1 EC50 is 63 nM.

Q: And the Glu IC50 [4]?
A: Its Glu IC50 is 2010 nM.

Q: “Glucagon (6-CEX) analog [PLA6, E9, K12E16(Lactam) (peptide)” was tested. Which Glucagon IC50 [2] did it give?
A: Its Glucagon IC50 is 72 nM.

Q: What about the GLP-1 EC50 [3] of the same molecule?
A: Its GLP-1 EC50 is 6 nM.

Q: What about the Glu IC50 [4] of the same molecule?
A: The Glu IC50 was 72 nM.

Q: With [PhLac]TSDYSKYLDERRAKDFVQWLMDT-NH2 (lactam 11-15) [[PLA6, D9, E16K20(lactam), D28]G(6-29)] as the molecule, how does the “Glucagon IC50” value [5] read?
A: The value was 10 to 30 nM.

Q: What about the “GLP-1 EC50” value [6] of the same molecule?
A: Its value is 4 nM.

Q: With FTSDYSKYLDSRRAQDFVQWLMDT (residue 1 (position 6) is phenyl lactic acid (PLA), written here as F) [PLA 6, D9, D28] as the molecule, how does the “GLP-1 EC50” value [6] read?
A: The value was roughly 700 nM.

B1: [PLA6, D9, E16, E24K28(lactam), D28]G(6-29) (peptide)
peptide: [PhLac]TSDYSKYLDERRAQDFVEWLMKT-NH2
modifications: lactam 19-23; N-terminus assumed
SMILES: CSCC[C@@H]1NC(=O)[C@H](CC(C)C)NC(=O)[C@H](Cc2c[nH]c3ccccc23)NC(=O)[C@@H](NC(=O)[C@@H](NC(=O)[C@H](Cc2ccccc2)NC(=O)[C@H](CC(=O)O)NC(=O)[C@H](CCC(N)=O)NC(=O)[C@H](C)NC(=O)[C@H](CCCNC(=N)N)NC(=O)[C@H](CCCNC(=N)N)NC(=O)[C@H](CCC(=O)O)NC(=O)[C@H](CC(=O)O)NC(=O)[C@H](CC(C)C)NC(=O)[C@H](Cc2ccc(O)cc2)NC(=O)[C@H](CCCCN)NC(=O)[C@H](CO)NC(=O)[C@H](Cc2ccc(O)cc2)NC(=O)[C@H](CC(=O)O)NC(=O)[C@H](CO)NC(=O)[C@@H](NC(=O)[C@@H](O)Cc2ccccc2)[C@@H](C)O)C(C)C)CCC(=O)NCCCC[C@@H](C(=O)N[C@H](C(N)=O)[C@@H](C)O)NC1=O
Q: Which results are given for B1?
A: GLP-1 EC50 [7]: 289 nM; Glucagon IC50 [5]: 22 nM

Q: With HSQGTFTSDYARYLDARRAREFIKWLVRGRG [ANK2 (Bayer peptide)] as the molecule, how does the “GLP-1 EC50” value [7] read?
A: The value was 0.28 nM.

B2: [E9, E16K20(lactam), D28]G(4-29) (peptide)
peptide: GTFTSEYSKYLDERRAKDFVQWLMDT-NH2
modifications: lactam 13-17; N-terminus assumed
SMILES: CSCC[C@H](NC(=O)[C@H](CC(C)C)NC(=O)[C@H](Cc1c[nH]c2ccccc12)NC(=O)[C@H](CCC(N)=O)NC(=O)[C@@H](NC(=O)[C@H](Cc1ccccc1)NC(=O)[C@H](CC(=O)O)NC(=O)[C@@H]1CCCCNC(=O)CC[C@H](NC(=O)[C@H](CC(=O)O)NC(=O)[C@H](CC(C)C)NC(=O)[C@H](Cc2ccc(O)cc2)NC(=O)[C@H](CCCCN)NC(=O)[C@H](CO)NC(=O)[C@H](Cc2ccc(O)cc2)NC(=O)[C@H](CCC(=O)O)NC(=O)[C@H](CO)NC(=O)[C@@H](NC(=O)[C@H](Cc2ccccc2)NC(=O)[C@@H](NC(=O)CN)[C@@H](C)O)[C@@H](C)O)C(=O)N[C@@H](CCCNC(=N)N)C(=O)N[C@@H](CCCNC(=N)N)C(=O)N[C@@H](C)C(=O)N1)C(C)C)C(=O)N[C@@H](CC(=O)O)C(=O)N[C@H](C(N)=O)[C@@H](C)O
Q: Which results are given for B2?
A: GLP-1 EC50 [7]: 151 nM; Glucagon IC50 [5]: 10 to 30 nM
